Data: the RNAGym collection of RNA variant scans (doi:10.1073/pnas.2313332121)
Variants at the floor of the assay were thinned out.

B1: TPR 5TU (parent)
chain: GGAUCUUCUCGAUCUAACAAAAAAGACAAAUCUGCCACAAAGCUUGAGAGCAUCUUCGGAUGCAGAGGCGGCAGCCUUCGGUGGCGCGAUAGCGCCAACGUUCUCAACUAUGACACGCAAAACGCGUGCUCCGUUGAAUGGAGUUUAUCAUG

Variants of: B1
Assay: polymerase ribozyme fitness, log enrichment relative to wild type (log ratio); higher = more active; in vitro selection for triplet polymerase activity
Method in brief: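 Mutant libraries were PCR-built and transcribed for each subunit of a heterodimeric triplet polymerase ribozyme and selected for one round in triplicate at −7 °C, frozen, before gel excision of extended constructs and streptavidin-bead capture. Input and output libraries were Illumina-sequenced, keeping genotypes with ≥10 input reads and ≥1 read per output. Fitness is a logarithmic ratio of genotype to wild-type enrichment, in base 2, using inverse-variance-weighted replicate averages.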

Row | Variant | polymerase ribozyme fitness (log ratio)
1 | GGAUCUUCUCGAUCUAACAAAAAAGACAAAUCUGCCACAAAGCUUGAGAGCAUCUUCGGAUGCAGAGGCGGCAGCCUUCGGUGGCGAGAUAGCGCCAACGUUCUCAACUAUGACACGCAAAACGCGUGCUCCGUUGAAUGGAGUUUGUCAUG [C87A A147G] | ≤ -4.2
2 | GGAUCUUCUCGAUCUAACAAAAAAGACAAAUCUGCCACAAAGCUUGAGAGCAUCUUCGGAUGCAGAGGCGGCAGCCUUCGGUGGCGAGAUAGUGUCAACAUUCUCAACUAUGACAUGCAAGACGCGUGAGCCGUUGAAUGGAGUUUAUCAUG [C87A C93U C95U G100A C116U A121G C129A U130G] | ≤ -4.2
3 | GGAUCUUCUCGAUCUAACAAAAAAGACAAAUCUGCCACAAAGCUUGAGAGCAUCUUCGGAUGCAGAGGCGGCAGCCUUCGGUGGCGAGACAGCGCCAACGUUCUCAACUAUGACACCCAAAACGCGUGCUCCGUUGAAUGGAGUUUAUCAUG [C87A U90C G117C] | -3.77
4 | GGAUCUUCUCGAUCUAACAAAAAAGACAAAUCUGCCACAAAGCUUGAGAGCAUCUUCGGAUGCAGAGGCGGCAGCCUUCGGUGGCGAGAUAGCGCCAACGUUCUCACCUAUGACACGCAAAACGCGUGCUCCGUUGAAUGGAGUUUAUCAUG [C87A A107C] | ≤ -4.2
5 | GGAUCUUCUCGAUCUAACAAAAAAGACAAAUCUGCCACAAAGCUUGAGAGCAUCUUCGGAUGCAGAGGCGGCAGCCUUCGGUGGCGAGAUAGCGCCAACGUUCUCAACUAUGACACGCAAAACGCGUGCUCCGUUGAAUCGAGUUUAUCAUG [C87A G140C] | ≤ -4.2
6 | GGAUCUUCUCGAUCUAACAAAAAAGACAAAUCUGCCACAAAGCUUGAGAGCAUCUUCGGAUGCAGAGGCGGCAGCCUUCGGUGGCGAGAUAGAGGCAACGUUCUCAACUAUGACACGCAAUACGCGGGCUCCGUUGAAUAGAGUUUAUCAUG [C87A C93A C95G A121U U127G G140A] | ≤ -4.2
7 | GGAUCUUCUCGAUCUAACAAAAAAGACAAAUCUGCCACAAAGCUUGAGAGCAUCUUCGGAUGCAGAGGCGGCAGCCUUCGGUGGCGGGUUAGCGCCAACGUUCUCAACUAUGACACGCAAAACGCGUGCUCCGUUGAAUGGAGUUUAUCAUG [C87G A89U] | ≤ -4.2
8 | GGAUCUUCUCGAUCUAACAAAAAAGACAAAUCUGCCACAAAGCUUGAGAGCAUCUUCGGAUGCAGAGGCGGCAGCCUUCGGUGGCGAGAUAGCGCCAACUUUCUCAACUAUGACACGCAAAACGCGUGCUCCGUUGAAUGGAGUUUAUCAUG [C87A G100U] | ≤ -4.2
9 | GGAUCUUCUCGAUCUAACAAAAAAGACAAAUCUGCCACAAAGCUUGAGAGCAUCUUCGGAUGCAGAGGCGGCAGCCUUCGGUGGCGAGAUAGCGCCAACGUUCUUAUCUAUGACACGCAAAACGCGUGCUCCGUUGAAUGGAGUUUAUCAUG [C87A C105U A107U] | ≤ -4.2
10 | GGAUCUUCUCGAUCUAACAAAAAAGACAAAUCUGCCACAAAGCUUGAGAGCAUCUUCGGAUGCAGAGGCGGCAGCCUUCGGUGGCGAGAUAGCGCCAACGGUCUCAACUAUGACACGCAAAACACGUGCUCCGUUGAAUGGCGUUUAUCAUG [C87A U101G G124A A142C] | -4.02
11 | GGAUCUUCUCGAUCUAACAAAAAAGACAAAUCUGCCACAAAGCUUGAGAGCAUCUUCGGAUGCAGAGGCGGCAGCCUUCGGUGGCGAAAUAGCGCCAACGUUCUCAACUAUGACACACGAAACGCGUGCUCCGUUGAAUGGAGUUUAUCAUG [C87A G88A G117A A119G] | ≤ -4.2
12 | GGAUCUUCUCGAUCUAACAAAAAAGACAAAUCUGCCACAAAGCUUGAGAGCAUCUUCGGAUGCAGAGGCGGCAGCCUUCGGUGGCGAGAUAGCGCCAACGUUCUCAACUAUGACACGCAAAACGCGUGCUCCGUUGAAUGGAGCUUAUCAUG [C87A U144C] | ≤ -4.2
13 | GGAUCUUCUCGAUCUAACAAAAAAGACAAAUCUGCCACAAAGCUUGAGAGCAUCUUCGGAUGCAGAGGCGGCAGCCUUCGGUGGCGAGAUAGCGCCAACGUUCUCAACUAUGACACGCAAAACGCGUGCUCCGUUGAAUGGAGGUUAUCAUG [C87A U144G] | -3.92
14 | GGAUCUUCUCGAUCUAACAAAAAAGACAAAUCUGCCACAAAGCUUGAGAGCAUCUUCGGAUGCAGAGGCGGCAGCCUUCGGUGGCGAGAUAGCGCCAACGUUCUCAACUAUGACACGCAAAACGCGUGCUCCGUUGACUGGAGUUUAUCAUG [C87A A138C] | ≤ -4.2
15 | GGAUCUUCUCGAUCUAACAAAAAAGACAAAUCUGCCACAAAGCUUGAGAGCAUCUUCGGAUGCAGAGGCGGCAGCCUUCGGUGGCGAGUUAGCGCCAACGUUCUCAACUAUGACACGCAAAACGCGUGGUCCGUUGAAUGGAGUUUAUCAUG [C87A A89U C129G] | ≤ -4.2
16 | GGAUCUUCUCGAUCUAACAAAAAAGACAAAUCUGCCACAAAGCUUGAGAGCAUCUUCGGAUGCAGAGGCGGCAGCCUUCGGUGGCGAGAGAGCGCCAACGUUCUCAACUAUGACACGCAAAACGCGUGCUCCGGUGAAUGGAGUUUAUCAUG [C87A U90G U134G] | ≤ -4.2
17 | GGAUCUUCUCGAUCUAACAAAAAAGACAAAUCUGCCACAAAGCUUGAGAGCAUCUUCGGAUGCAGAGGCGGCAGCCUUCGGUGGCGAGAUGGCGCCAACGUUCUCAACUAUGACACGCAAAACGCGUGCUCCGUUGAAUGGAGUUUAUCAUG [C87A A91G] | ≤ -4.2
18 | GGAUCUUCUCGAUCUAACAAAAAAGACAAAUCUGCCACAAAGCUUGAGAGCAUCUUCGGAUGCAGAGGCGGCAGCCUUCGGUGGCGAGAUAGCGCCAACGUUCUCAACUAUGACACGCAAAACGCGUGCUCCGUUGAAUGGAGUUUAUCGUG [C87A A150G] | ≤ -4.2
19 | GGAUCUUCUCGAUCUAACAAAAAAGACAAAUCUGCCACAAAGCUUGAGAGCAUCUUCGGAUGCAGAGGCGGCAGCCUUCGGUGGCGAGAUAGCGCCAACGUUCUCAACUAUGACACGCAAAACGCGUGCUCCGUUGAAUGGAGUUUAUCAGG [C87A U151G] | ≤ -4.2
